B1: BBSome complex member BBS2 (Homo sapiens), Q9BXC9 (parent)
chain: MLLPVFTLKLRHKISPRMVAIGRYDGTHPCLAAATQTGKVFIHNPHTRNQHVSASRVFQSPLESDVSLLSINQAVSCLTAGVLNPELGYDALLVGTQTNLLAYDVYNNSDLFYREVADGANAIVLGTLGDISSPLAIIGGNCALQGFNHEGSDLFWTVTGDNVNSLALCDFDGDGKKELLVGSEDFDIRVFKEDEIVAEMTETEIVTSLCPMYGSRFGYALSNGTVGVYDKTSRYWRIKSKNHAMSIHAFDLNSDGVNELITGWSNGKVDARSDRTGEVIFKDNFSSAIAGVVEGDYRMDGHIQLICCSVDGEIRGYLPGTAEMRGNLMDTSAEQDLIRELSQKKQNLLLELRNYEENAKAELASPLNEADGHRGIIPANTRLHTTLSVSLGNETQTAHTELRISTSNDTIIRAVLIFAEGIFTGESHVVHPSIHNLSSSICIPIVPPKDVPVDLHLKAFVGYRSSTQFHVFESTRQLPRFSMYALTSLDPASEPISYVNFTIAERAQRVVVWLGQNFLLPEDTHIQNAPFQVCFTSLRNGGHLHIKIKLSGEITINTDDIDLAGDIIQSMASFFAIEDLQVEADFPVYFEELRKVLVKVDEYHSVHQKLSADMADHSNLIRSLLVGAEDARLMRDMKTMKSRYMELYDLNRDLLNGYKIRCNNHTELLGNLKAVNQAIQRAGRLRVGKPKNQVITACRDAIRSNNINTLFKIMRVGTASS
partner: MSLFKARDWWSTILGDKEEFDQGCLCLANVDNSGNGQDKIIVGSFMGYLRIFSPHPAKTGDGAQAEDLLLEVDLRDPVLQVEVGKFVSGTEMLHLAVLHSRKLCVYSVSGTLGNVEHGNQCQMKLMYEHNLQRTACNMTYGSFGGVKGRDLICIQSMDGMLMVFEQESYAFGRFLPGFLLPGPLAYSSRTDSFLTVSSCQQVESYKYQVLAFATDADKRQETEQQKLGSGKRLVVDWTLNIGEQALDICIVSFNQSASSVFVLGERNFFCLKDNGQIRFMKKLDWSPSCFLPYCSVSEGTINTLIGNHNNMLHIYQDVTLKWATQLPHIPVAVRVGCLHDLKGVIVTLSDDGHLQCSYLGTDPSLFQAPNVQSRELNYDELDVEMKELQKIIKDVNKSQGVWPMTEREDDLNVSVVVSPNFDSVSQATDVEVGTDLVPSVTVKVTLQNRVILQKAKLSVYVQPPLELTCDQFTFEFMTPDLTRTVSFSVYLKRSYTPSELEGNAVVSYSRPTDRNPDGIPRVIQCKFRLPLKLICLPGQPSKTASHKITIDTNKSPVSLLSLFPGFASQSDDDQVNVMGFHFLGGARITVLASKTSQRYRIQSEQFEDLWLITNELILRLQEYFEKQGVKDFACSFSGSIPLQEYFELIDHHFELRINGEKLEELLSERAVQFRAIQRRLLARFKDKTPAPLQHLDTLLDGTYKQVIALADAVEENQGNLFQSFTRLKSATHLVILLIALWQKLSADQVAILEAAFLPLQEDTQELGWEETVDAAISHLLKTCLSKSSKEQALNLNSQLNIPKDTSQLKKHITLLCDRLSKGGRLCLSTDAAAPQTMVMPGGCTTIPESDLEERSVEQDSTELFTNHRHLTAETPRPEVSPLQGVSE

Variants of: B1
Conditions: with pthb1_human BBS9, Q3SYG4
V451E was tested, and the “effect of a mutation on the interaction” value was “with no effect”. For V451K, the “effect of a mutation on the interaction” value was “with no effect”. P452A was tested, and the “effect of a mutation on the interaction” value was “with no effect”. With P452E the “effect of a mutation on the interaction” value was “with no effect”. With P452K the “effect of a mutation on the interaction” value was “with no effect”. For V453A, the “effect of a mutation on the interaction” value was “with no effect”. For V453E, the “effect of a mutation on the interaction” value was “with no effect”. With V453K the “effect of a mutation on the interaction” value was “disrupting interaction strength”. In the case of D454A, the “effect of a mutation on the interaction” value is reported as “with no effect”. In the case of D454E, the “effect of a mutation on the interaction” value is reported as “with no effect”. D454K was tested, and the “effect of a mutation on the interaction” value was “with no effect”. In the case of L455A, the “effect of a mutation on the interaction” value is reported as “with no effect”. In the case of L455K, the “effect of a mutation on the interaction” value is reported as “disrupting interaction strength”. In the case of L455P, the “effect of a mutation on the interaction” value is reported as “disrupting interaction strength”. In the case of H456A, the “effect of a mutation on the interaction” value is reported as “with no effect”. H456E was tested, and the “effect of a mutation on the interaction” value was “with no effect”. In the case of H456K, the “effect of a mutation on the interaction” value is reported as “with no effect”. For L457A, the “effect of a mutation on the interaction” value was “with no effect”. With L457C the “effect of a mutation on the interaction” value was “disrupting interaction strength”. L457E was tested, and the “effect of a mutation on the interaction” value was “disrupting interaction strength”. With L457K the “effect of a mutation on the interaction” value was “disrupting interaction strength”. For K458A, the “effect of a mutation on the interaction” value was “with no effect”. In the case of K458E, the “effect of a mutation on the interaction” value is reported as “with no effect”. A459E was tested, and the “effect of a mutation on the interaction” value was “disrupting interaction strength”. In the case of A459K, the “effect of a mutation on the interaction” value is reported as “disrupting interaction strength”. In the case of A459T, the “effect of a mutation on the interaction” value is reported as “disrupting interaction strength”. In the case of F460A, the “effect of a mutation on the interaction” value is reported as “disrupting interaction strength”. For F460E, the “effect of a mutation on the interaction” value was “disrupting interaction strength”. In the case of F460K, the “effect of a mutation on the interaction” value is reported as “with no effect”. For V461A, the “effect of a mutation on the interaction” value was “disrupting interaction strength”. With V461E the “effect of a mutation on the interaction” value was “disrupting interaction strength”. With V461K the “effect of a mutation on the interaction” value was “disrupting interaction strength”. V461M was tested, and the “effect of a mutation on the interaction” value was “disrupting interaction strength”. In the case of G462A, the “effect of a mutation on the interaction” value is reported as “with no effect”. For G462D, the “effect of a mutation on the interaction” value was “disrupting interaction strength”. In the case of G462E, the “effect of a mutation on the interaction” value is reported as “with no effect”. G462K was tested, and the “effect of a mutation on the interaction” value was “with no effect”. In the case of G462S, the “effect of a mutation on the interaction” value is reported as “disrupting interaction strength”. For Y463A, the “effect of a mutation on the interaction” value was “with no effect”. For Y463E, the “effect of a mutation on the interaction” value was “with no effect”. For Y463K, the “effect of a mutation on the interaction” value was “with no effect”. With R464A the “effect of a mutation on the interaction” value was “with no effect”. With R464E the “effect of a mutation on the interaction” value was “with no effect”. In the case of R464K, the “effect of a mutation on the interaction” value is reported as “with no effect”. In the case of S465A, the “effect of a mutation on the interaction” value is reported as “with no effect”. S465E was tested, and the “effect of a mutation on the interaction” value was “with no effect”. S465K was tested, and the “effect of a mutation on the interaction” value was “with no effect”. S466A was tested, and the “effect of a mutation on the interaction” value was “with no effect”. S466E was tested, and the “effect of a mutation on the interaction” value was “disrupting interaction strength”. With S466K the “effect of a mutation on the interaction” value was “with no effect”. For T467A, the “effect of a mutation on the interaction” value was “with no effect”. For T467E, the “effect of a mutation on the interaction” value was “with no effect”. With T467K the “effect of a mutation on the interaction” value was “with no effect”. In the case of Q468A, the “effect of a mutation on the interaction” value is reported as “with no effect”. For Q468E, the “effect of a mutation on the interaction” value was “with no effect”. In the case of Q468K, the “effect of a mutation on the interaction” value is reported as “with no effect”. For F469A, the “effect of a mutation on the interaction” value was “with no effect”. With F469E the “effect of a mutation on the interaction” value was “disrupting interaction strength”. For F469K, the “effect of a mutation on the interaction” value was “disrupting interaction strength”. In the case of F469L, the “effect of a mutation on the interaction” value is reported as “disrupting interaction strength”. With H470A the “effect of a mutation on the interaction” value was “with no effect”. For H470E, the “effect of a mutation on the interaction” value was “with no effect”. With H470K the “effect of a mutation on the interaction” value was “with no effect”. With V471A the “effect of a mutation on the interaction” value was “disrupting interaction strength”. V471E was tested, and the “effect of a mutation on the interaction” value was “with no effect”. For V471K, the “effect of a mutation on the interaction” value was “with no effect”. F472A was tested, and the “effect of a mutation on the interaction” value was “with no effect”. In the case of F472E, the “effect of a mutation on the interaction” value is reported as “with no effect”. With F472K the “effect of a mutation on the interaction” value was “with no effect”. E473A was tested, and the “effect of a mutation on the interaction” value was “with no effect”. For E473K, the “effect of a mutation on the interaction” value was “with no effect”. In the case of S474A, the “effect of a mutation on the interaction” value is reported as “disrupting interaction strength”. S474E was tested, and the “effect of a mutation on the interaction” value was “with no effect”. In the case of S474K, the “effect of a mutation on the interaction” value is reported as “disrupting interaction strength”. In the case of T475A, the “effect of a mutation on the interaction” value is reported as “with no effect”. For T475E, the “effect of a mutation on the interaction” value was “with no effect”. With T475K the “effect of a mutation on the interaction” value was “with no effect”. With R476A the “effect of a mutation on the interaction” value was “with no effect”. For R476E, the “effect of a mutation on the interaction” value was “with no effect”. With R476K the “effect of a mutation on the interaction” value was “with no effect”. For Q477A, the “effect of a mutation on the interaction” value was “with no effect”. In the case of Q477E, the “effect of a mutation on the interaction” value is reported as “with no effect”. In the case of Q477K, the “effect of a mutation on the interaction” value is reported as “with no effect”.

Source: IntAct's records for PubMed 29039417
